The values below come from the RNAGym collection of RNA variant scans (doi:10.7554/elife.90254).

B1: LINE1-full (parent)
chain: UACGUAGGUGGUUUUCCCCUGAUAGUGCUAAGGGGGCCUGGAAGUUUGGACUGGGCAGAGCUCAACACAGCGUGGCAAAGUGGCUGUGGCUAGACUGCCUCUCUGGAUUCCUCGUCACUCAGCAGGGCAUCUCUGAGAGAAAUGCC

The variants in this data set derive from B1. The data set is described as follows: self-cleavage, relative activity (ratio to wild type); higher = more cleavage; in vitro, sequencing; the parent is a self-cleaving ribozyme.
Consider U26A A77C, for which the self-cleavage turned out to be 0.

Turning to U26A A77U, the self-cleavage stood at 0.78.

Take U26C A92G: the self-cleavage is 0.04.

Turning to U26A G70A, the self-cleavage is 0.11.

In the case of G25A A78G, the self-cleavage turned out to be 1.2.

On to U26A U134A, for which the self-cleavage came to 1.23.

As to A24U G126U, the self-cleavage was 1.22.

Take A24U G126A: the self-cleavage worked out at 1.34.

As for U26C A31U, the self-cleavage was found to be 1.05.

With A24U U62A, the self-cleavage was determined as 0.03.

As for U26C A121U, the self-cleavage turned out to be 1.43.

Regarding U26C A121G, the self-cleavage came to 1.64.

U26A A57C: the self-cleavage amounted to 0.02.

As for U26C A79G, the self-cleavage stood at 1.01.

In the case of U26C A79U, the self-cleavage came to 0.68.

For G25A G35A, the self-cleavage turned out to be 0.91.

Take G25A U130C: the self-cleavage was determined as 0.8.

U26A A67U: the self-cleavage was 0.03.

Consider U26C A129U, for which the self-cleavage stood at 1.24.

For the variant U26C A140G, the self-cleavage was found to be 1.19.

On to U26C A140C, for which the self-cleavage is 1.19.

As for G25C U85C, the self-cleavage came out at 0.2.

Take U26C A141G: the self-cleavage is 1.27.

As to G25U A43C, the self-cleavage was 1.32.

For G25A A43G, the self-cleavage is 1.27.

U26C A124U: the self-cleavage stood at 1.25.

Take G25A A124G: the self-cleavage was determined as 0.63.

Take A24U U132C: the self-cleavage was found to be 1.07.

Turning to A24U U132A, the self-cleavage was 1.59.

For G25A U46A, the self-cleavage is 1.42.

Regarding G25A A107G, the self-cleavage was determined as 0.88.

Consider U26A A31U, for which the self-cleavage came to 1.43.

On to A24U G137U, for which the self-cleavage came out at 2.12.

On to U26A A59U, for which the self-cleavage worked out at 0.65.

As to U26C A65G, the self-cleavage stood at 0.13.

On to U26C A65U, for which the self-cleavage came out at 0.14.

For U26A C145A, the self-cleavage turned out to be 1.07.

With A24U U87A, the self-cleavage came out at 0.11.

On to U26A U91A, for which the self-cleavage stood at 0.44.

On to U26A U108C, for which the self-cleavage worked out at 1.13.

For U26A U45A, the self-cleavage was 0.84.

In the case of U26A U45C, the self-cleavage is 1.37.

As for U26A G126A, the self-cleavage amounted to 0.82.

For the variant U26A A136G, the self-cleavage amounted to 1.57.

As to U26A G32A, the self-cleavage worked out at 0.44.

Take A24U G122U: the self-cleavage is 1.33.

Turning to U26A U130C, the self-cleavage worked out at 1.24.

With U26C C116U, the self-cleavage worked out at 1.48.

On to U26C A64U, for which the self-cleavage amounted to 0.61.

U26C A67G: the self-cleavage is 1.16.

On to U26C C123U, for which the self-cleavage was 1.06.

Take U26C A50G: the self-cleavage is 1.14.

Turning to A24U U39A, the self-cleavage was 0.84.

For the variant U26A U62A, the self-cleavage is 0.05.

As to U26A U62C, the self-cleavage was found to be 0.04.

Take U26A A50G: the self-cleavage came to 0.92.

Consider U26A U39A, for which the self-cleavage turned out to be 0.99.

For U26A U132C, the self-cleavage came to 1.15.

A24U U29A: the self-cleavage is 1.12.

In the case of U26C C38U, the self-cleavage was determined as 1.29.

Turning to U26C A138G, the self-cleavage was 1.78.

As to U26C A138U, the self-cleavage was 1.57.

As for U26C A138C, the self-cleavage turned out to be 1.28.

For A24U U46A, the self-cleavage was 0.91.

On to G25A U39A, for which the self-cleavage is 1.15.

As to U26C C95U, the self-cleavage was determined as 0.24.

As for A24U U119G, the self-cleavage is 2.22.

As to U26A U52C, the self-cleavage was 0.8.

In the case of U26A G44A, the self-cleavage stood at 1.

U26A A107U: the self-cleavage is 1.09.

Consider U26A A107G, for which the self-cleavage is 1.06.

With A24U U143A, the self-cleavage was 1.13.

Consider G25A C99G, for which the self-cleavage is 0.06.

Regarding U26C C118U, the self-cleavage is 1.05.

Take G25A A59G: the self-cleavage is 0.09.

Consider U26A G127U, for which the self-cleavage came to 1.16.

Regarding U26C A107G, the self-cleavage stood at 1.33.

Take U26A A117U: the self-cleavage was determined as 0.98.

Regarding U26C A43U, the self-cleavage worked out at 1.21.

With U26A U115A, the self-cleavage was determined as 1.07.

Regarding G25A G44A, the self-cleavage was determined as 1.16.

On to U26A C63U, for which the self-cleavage turned out to be 0.37.

With U26C A59C, the self-cleavage came to 1.37.

On to U26C A59G, for which the self-cleavage worked out at 0.08.

Turning to G25A A67G, the self-cleavage amounted to 0.5.

In the case of U26C C28U, the self-cleavage worked out at 1.15.

On to G25C U91C, for which the self-cleavage was 0.97.

Take U26A U119C: the self-cleavage was determined as 0.97.

As for G25A U109A, the self-cleavage was 1.72.

In the case of U26A G55A, the self-cleavage stood at 0.25.

Turning to G25A A64U, the self-cleavage turned out to be 0.4.

As to G25A A64G, the self-cleavage was found to be 0.27.

Consider G25A A117U, for which the self-cleavage is 1.25.

A24U G93A: the self-cleavage stood at 0.06.

On to U26A C28U, for which the self-cleavage was found to be 0.99.

Consider G25A A42G, for which the self-cleavage was 1.38.

On to U26A A92G, for which the self-cleavage was determined as 0.05.

As to U26C A69U, the self-cleavage worked out at 0.11.

Consider U26C A69G, for which the self-cleavage came to 0.46.

A24U U26C: the self-cleavage is 0.97.

U26A G122A: the self-cleavage came to 0.72.

In the case of U26A U96A, the self-cleavage is 0.09.

As for U26A U96C, the self-cleavage amounted to 0.16.

For U26A C113U, the self-cleavage worked out at 0.86.

As to A24U U102C, the self-cleavage was 1.09.

Regarding U26A A94G, the self-cleavage worked out at 0.24.

For U26A G93A, the self-cleavage worked out at 0.

Consider G25A U104A, for which the self-cleavage worked out at 1.03.

For the variant U26A G53A, the self-cleavage was determined as 1.44.

As for U26A U102C, the self-cleavage worked out at 1.13.

As to U26C A77G, the self-cleavage came to 1.93.

With U26C A77C, the self-cleavage was 1.61.

In the case of U26A U87G, the self-cleavage amounted to 0.13.

U26A U87C: the self-cleavage turned out to be 0.15.

Regarding G25A U91C, the self-cleavage worked out at 0.

In the case of G25A A92U, the self-cleavage is 0.25.

For the variant G25A U108C, the self-cleavage turned out to be 1.24.

With U26A A42U, the self-cleavage was 1.03.

For U26A A42G, the self-cleavage is 1.02.

Regarding U26C C120U, the self-cleavage is 1.17.

For the variant U26A U109C, the self-cleavage stood at 0.95.

For the variant U26A A141U, the self-cleavage was found to be 0.61.

With G25U U119A, the self-cleavage turned out to be 1.69.

As to G25U U119C, the self-cleavage came out at 1.74.

For U26A C84U, the self-cleavage is 0.02.

On to U26A C90U, for which the self-cleavage was determined as 0.04.

As for G25U G49U, the self-cleavage stood at 1.21.

Take U26A A69G: the self-cleavage is 0.29.

As for U26A A69U, the self-cleavage was 0.08.

With G25C U119C, the self-cleavage is 1.58.

As to U26C C131G, the self-cleavage was 2.07.

Consider U26C C131A, for which the self-cleavage amounted to 0.78.

Regarding G25U A65G, the self-cleavage was 0.01.

Consider U26A A65U, for which the self-cleavage turned out to be 0.14.

Regarding U26A A65G, the self-cleavage came to 0.16.

For A24U U47C, the self-cleavage amounted to 1.57.

As for U26C C111A, the self-cleavage came to 1.04.

For G25A U85A, the self-cleavage turned out to be 0.08.

For the variant G25A A94G, the self-cleavage is 0.21.

As for U26A U104C, the self-cleavage came out at 1.28.

G25U U39C: the self-cleavage turned out to be 0.47.

As to U26A U112A, the self-cleavage is 0.9.

In the case of U26A U112C, the self-cleavage is 1.18.

For the variant G25A U47C, the self-cleavage was 0.54.

Consider G25A G54C, for which the self-cleavage came to 1.02.

Turning to G25U U104A, the self-cleavage is 0.77.

For U26A U46C, the self-cleavage stood at 1.45.

For the variant U26A A129U, the self-cleavage was found to be 1.06.

Consider G25A U143A, for which the self-cleavage came to 1.12.

U26A A30U: the self-cleavage was 1.56.

Consider A24U G106A, for which the self-cleavage stood at 1.51.

On to U26C C101U, for which the self-cleavage stood at 1.46.

As for U26A G82U, the self-cleavage is 0.93.

Regarding U26A U81A, the self-cleavage turned out to be 1.29.

Take U26A U81C: the self-cleavage is 0.74.

U26A G72A: the self-cleavage worked out at 0.94.

With U26A G137A, the self-cleavage came out at 1.53.

As for G25A A142C, the self-cleavage was determined as 2.3.

For the variant G25A A142U, the self-cleavage was 0.93.

Turning to U26A G36C, the self-cleavage was found to be 0.41.

Regarding U26A G35U, the self-cleavage came out at 1.14.

With U26A G35A, the self-cleavage came to 0.67.

For the variant G25C U102C, the self-cleavage is 1.31.

Regarding G25A G27A, the self-cleavage was 1.03.

Take U26C C71U: the self-cleavage was determined as 0.9.

As to U26C A136G, the self-cleavage was 1.42.

Turning to G25A A136G, the self-cleavage was determined as 1.58.
